According to patent US20140363428A1 (Chugai, published 2014):

B1: IgG1-F1125 (antibody)
heavy: QVQLQESGPGLVKPSETLSLTCAVSGHSISHDHAWSWVRQPPGEGLEWIGFISYSGITNYNPSLQGRVTISRDNSKNTLYLQMNSLRAEDTAVYYCARSLARTTAMDYWGEGTLVTVSSASTKGPSVFPLAPSSKSTSGGTAALGCLVKDYFPEPVTVSWNSGALTSGVHTFPAVLQSSGLYSLSSVVTVPSSSLGTQTYICNVNHKPSNTKVDKKVEPKSCDKTHTCPPCPAPELLGGPSVFLFPPKPKDTLYISRTPEVTCVVVDVSHEDPEVKFNWYVDGVEVHNAKTKPREEQYNSTYRVVSVLQVLHQDWLNGKEYKCKVSNKALPAPIEKTISKAKGQPREPQVYTLPPSRDELTKNQVSLTCLVKGFYPSDIAVEWESNGQPENNYKTTPPVLDSDGSFFLYSKLTVDKSRWQQGNVFSCSVMHEALHYHVTQKSLSLSP
light: not shown
notes: VH3-IgG1 with Fc substitutions (EU numbering) + L(WT)-CK
B2: IgG1-F1342 (antibody)
heavy: QVQLQESGPGLVKPSETLSLTCAVSGHSISHDHAWSWVRQPPGEGLEWIGFISYSGITNYNPSLQGRVTISRDNSKNTLYLQMNSLRAEDTAVYYCARSLARTTAMDYWGEGTLVTVSSASTKGPSVFPLAPSSKSTSGGTAALGCLVKDYFPEPVTVSWNSGALTSGVHTFPAVLQSSGLYSLSSVVTVPSSSLGTQTYICNVNHKPSNTKVDKKVEPKSCDKTHTCPPCPAPELRGGPKVFLFPPKPKDTLYISREPEVTCVVVDVSHEDPEVKFNWYVDGVEVHNAKTKPREEQYNSTYRVVSVLTVLHQDWLNGKEYKCKVSNKALPAPIEKTISKAKGQPREPQVYTLPPSRDELTKNQVSLTCLVKGFYPSDIAVEWESNGQPENNYKTTPPVLDSDGSFFLYSKLTVDKSRWQQGNVFSCSVMHEALHYHTTKKELSLSP
light: not shown
notes: EU numbering; copies: 2 + 2
B3: IgG1-F1347 (antibody)
heavy: QVQLQESGPGLVKPSETLSLTCAVSGHSISHDHAWSWVRQPPGEGLEWIGFISYSGITNYNPSLQGRVTISRDNSKNTLYLQMNSLRAEDTAVYYCARSLARTTAMDYWGEGTLVTVSSASTKGPSVFPLAPSSKSTSGGTAALGCLVKDYFPEPVTVSWNSGALTSGVHTFPAVLQSSGLYSLSSVVTVPSSSLGTQTYICNVNHKPSNTKVDKKVEPKSCDKTHTCPPCPAPELRRGPKVFLFPPKPKDTLYISREPEVTCVVVDVSHEDPEVKFNWYVDGVEVHNAKTKPREEQYNSTYRVVSVLTVLHQDWLNGKEYKCKVSNKALPAPIEKTISKAKGQPREPQVYTLPPSRDELTKNQVSLTCLVKGFYPSDIAVEWESNGQPENNYKTTPPVLDSDGSFFLYSKLTVDKSRWQQGNVFSCSVMHEALHYHVTKKELSLSP
light: not shown
notes: EU numbering; copies: 2 + 2
B4: IgG1-F1343 (antibody)
heavy: QVQLQESGPGLVKPSETLSLTCAVSGHSISHDHAWSWVRQPPGEGLEWIGFISYSGITNYNPSLQGRVTISRDNSKNTLYLQMNSLRAEDTAVYYCARSLARTTAMDYWGEGTLVTVSSASTKGPSVFPLAPSSKSTSGGTAALGCLVKDYFPEPVTVSWNSGALTSGVHTFPAVLQSSGLYSLSSVVTVPSSSLGTQTYICNVNHKPSNTKVDKKVEPKSCDKTHTCPPCPAPELRGGPKVFLFPPKPKDTLYITREPEVTCVVVDVSHEDPEVKFNWYVDGVEVHNAKTKPREEQYNSTYRVVSVLTVLHQDWLNGKEYKCKVSNKALPAPIEKTISKAKGQPREPQVYTLPPSRDELTKNQVSLTCLVKGFYPSDIAVEWESNGQPENNYKTTPPVLDSDGSFFLYSKLTVDKSRWQQGNVFSCSVMHEALHYHTTKKELSLSP
light: not shown
notes: EU numbering; copies: 2 + 2
B5: IgG1-F1351 (antibody)
heavy: QVQLQESGPGLVKPSETLSLTCAVSGHSISHDHAWSWVRQPPGEGLEWIGFISYSGITNYNPSLQGRVTISRDNSKNTLYLQMNSLRAEDTAVYYCARSLARTTAMDYWGEGTLVTVSSASTKGPSVFPLAPSSKSTSGGTAALGCLVKDYFPEPVTVSWNSGALTSGVHTFPAVLQSSGLYSLSSVVTVPSSSLGTQTYICNVNHKPSNTKVDKKVEPKSCDKTHTCPPCPAPELRGGPKVFLFPPKPKDTLYISRTPEVTCVVVDVSHEDPEVKFNWYVDGVEVHNAKTKPREEQYNSTYRVVSVLTVLHQDWLNGKEYKCKVSNKALPAPIEKTISKAKGQPREPQVYTLPPSRDELTKNQVSLTCLVKGFYPSDIAVEWESNGQPENNYKTTPPVLDSDGSFFLYSKLTVDKSRWQQGNVFSCSVMHEALHYHFTRKELSLSP
light: not shown
notes: EU numbering; copies: 2 + 2
B6: IgG1-F1350 (antibody)
heavy: QVQLQESGPGLVKPSETLSLTCAVSGHSISHDHAWSWVRQPPGEGLEWIGFISYSGITNYNPSLQGRVTISRDNSKNTLYLQMNSLRAEDTAVYYCARSLARTTAMDYWGEGTLVTVSSASTKGPSVFPLAPSSKSTSGGTAALGCLVKDYFPEPVTVSWNSGALTSGVHTFPAVLQSSGLYSLSSVVTVPSSSLGTQTYICNVNHKPSNTKVDKKVEPKSCDKTHTCPPCPAPELRGGPKVFLFPPKPKDTLYISRTPEVTCVVVDVSHEDPEVKFNWYVDGVEVHNAKTKPREEQYNSTYRVVSVLTVLHQDWLNGKEYKCKVSNKALPAPIEKTISKAKGQPREPQVYTLPPSRDELTKNQVSLTCLVKGFYPSDIAVEWESNGQPENNYKTTPPVLDSDGSFFLYSKLTVDKSRWQQGNVFSCSVMHEALHYHFTKKELSLSP
light: not shown
notes: EU numbering; copies: 2 + 2
B7: IgG1-F1349 (antibody)
heavy: QVQLQESGPGLVKPSETLSLTCAVSGHSISHDHAWSWVRQPPGEGLEWIGFISYSGITNYNPSLQGRVTISRDNSKNTLYLQMNSLRAEDTAVYYCARSLARTTAMDYWGEGTLVTVSSASTKGPSVFPLAPSSKSTSGGTAALGCLVKDYFPEPVTVSWNSGALTSGVHTFPAVLQSSGLYSLSSVVTVPSSSLGTQTYICNVNHKPSNTKVDKKVEPKSCDKTHTCPPCPAPELRGGPKVFLFPPKPKDTLYISRTPEVTCVVVDVSHEDPEVKFNWYVDGVEVHNAKTKPREEQYNSTYRVVSVLTVLHQDWLNGKEYKCKVSNKALPAPIEKTISKAKGQPREPQVYTLPPSRDELTKNQVSLTCLVKGFYPSDIAVEWESNGQPENNYKTTPPVLDSDGSFFLYSKLTVDKSRWQQGNVFSCSVMHEALHYHTTRKELSLSP
light: not shown
notes: EU numbering; copies: 2 + 2
B8: IgG1-F1345 (antibody)
heavy: QVQLQESGPGLVKPSETLSLTCAVSGHSISHDHAWSWVRQPPGEGLEWIGFISYSGITNYNPSLQGRVTISRDNSKNTLYLQMNSLRAEDTAVYYCARSLARTTAMDYWGEGTLVTVSSASTKGPSVFPLAPSSKSTSGGTAALGCLVKDYFPEPVTVSWNSGALTSGVHTFPAVLQSSGLYSLSSVVTVPSSSLGTQTYICNVNHKPSNTKVDKKVEPKSCDKTHTCPPCPAPELRRGPKVFLFPPKPKDTLYISRTPEVTCVVVDVSHEDPEVKFNWYVDGVEVHNAKTKPREEQYNSTYRVVSVLTVLHQDWLNGKEYKCKVSNKALPAPIEKTISKAKGQPREPQVYTLPPSRDELTKNQVSLTCLVKGFYPSDIAVEWESNGQPENNYKTTPPVLDSDGSFFLYSKLTVDKSRWQQGNVFSCSVMHEALHYHVTKKELSLSP
light: not shown
notes: EU numbering; copies: 2 + 2
B9: IgG1-F1348 (antibody)
heavy: QVQLQESGPGLVKPSETLSLTCAVSGHSISHDHAWSWVRQPPGEGLEWIGFISYSGITNYNPSLQGRVTISRDNSKNTLYLQMNSLRAEDTAVYYCARSLARTTAMDYWGEGTLVTVSSASTKGPSVFPLAPSSKSTSGGTAALGCLVKDYFPEPVTVSWNSGALTSGVHTFPAVLQSSGLYSLSSVVTVPSSSLGTQTYICNVNHKPSNTKVDKKVEPKSCDKTHTCPPCPAPELRRGPKVFLFPPKPKDTLYITREPEVTCVVVDVSHEDPEVKFNWYVDGVEVHNAKTKPREEQYNSTYRVVSVLTVLHQDWLNGKEYKCKVSNKALPAPIEKTISKAKGQPREPQVYTLPPSRDELTKNQVSLTCLVKGFYPSDIAVEWESNGQPENNYKTTPPVLDSDGSFFLYSKLTVDKSRWQQGNVFSCSVMHEALHYHVTKKELSLSP
light: not shown
notes: EU numbering; copies: 2 + 2
B10: IgG1-F1352 (antibody)
heavy: QVQLQESGPGLVKPSETLSLTCAVSGHSISHDHAWSWVRQPPGEGLEWIGFISYSGITNYNPSLQGRVTISRDNSKNTLYLQMNSLRAEDTAVYYCARSLARTTAMDYWGEGTLVTVSSASTKGPSVFPLAPSSKSTSGGTAALGCLVKDYFPEPVTVSWNSGALTSGVHTFPAVLQSSGLYSLSSVVTVPSSSLGTQTYICNVNHKPSNTKVDKKVEPKSCDKTHTCPPCPAPELRGGPKVFLFPPKPKDTLYISRTPEVTCVVVDVSHEDPEVKFNWYVDGVEVHNAKTKPREEQYNSTYRVVSVLTVLHQDWLNGKEYKCKVSNKALPAPIEKTISKAKGQPREPQVYTLPPSRDELTKNQVSLTCLVKGFYPSDIAVEWESNGQPENNYKTTPPVLDSDGSFFLYSKLTVDKSRWQQGNVFSCSVMHEALDYHTTKKELSLSP
light: not shown
notes: EU numbering; copies: 2 + 2
B11: IgG1-F1346 (antibody)
heavy: QVQLQESGPGLVKPSETLSLTCAVSGHSISHDHAWSWVRQPPGEGLEWIGFISYSGITNYNPSLQGRVTISRDNSKNTLYLQMNSLRAEDTAVYYCARSLARTTAMDYWGEGTLVTVSSASTKGPSVFPLAPSSKSTSGGTAALGCLVKDYFPEPVTVSWNSGALTSGVHTFPAVLQSSGLYSLSSVVTVPSSSLGTQTYICNVNHKPSNTKVDKKVEPKSCDKTHTCPPCPAPELRRGPKVFLFPPKPKDTLYITRTPEVTCVVVDVSHEDPEVKFNWYVDGVEVHNAKTKPREEQYNSTYRVVSVLTVLHQDWLNGKEYKCKVSNKALPAPIEKTISKAKGQPREPQVYTLPPSRDELTKNQVSLTCLVKGFYPSDIAVEWESNGQPENNYKTTPPVLDSDGSFFLYSKLTVDKSRWQQGNVFSCSVMHEALHYHVTKKELSLSP
light: not shown
notes: EU numbering; copies: 2 + 2
B12: IgG1-F1344 (antibody)
heavy: QVQLQESGPGLVKPSETLSLTCAVSGHSISHDHAWSWVRQPPGEGLEWIGFISYSGITNYNPSLQGRVTISRDNSKNTLYLQMNSLRAEDTAVYYCARSLARTTAMDYWGEGTLVTVSSASTKGPSVFPLAPSSKSTSGGTAALGCLVKDYFPEPVTVSWNSGALTSGVHTFPAVLQSSGLYSLSSVVTVPSSSLGTQTYICNVNHKPSNTKVDKKVEPKSCDKTHTCPPCPAPELRGGPKVFLFPPKPKDTLYISRTPEVTCVVVDVSHEDPEVKFNWYVDGVEVHNAKTKPREEQYNSTYRVVSVLTVLHQDWLNGKEYKCKVSNKALPAPIEKTISKAKGQPREPQVYTLPPSRDELTKNQVSLTCLVKGFYPSDIAVEWESNGQPENNYKTTPPVLDSDGSFFLYSKLTVDKSRWQQGNVFSCSVMHEALHYHTTKKELSLSP
light: not shown
notes: EU numbering; copies: 2 + 2

The binders below were run against T1, soluble human FcRn (heterodimer of FcRn alpha chain and beta2-microglobulin) (human, UniProt P55899 24-297; P61769 21-119) (assay: SPR Biacore T100, antibody captured via protein L, hFcRn analyte, pH 7.0, 25 C;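 also: KD derived from kinetic ka and kd fits of sensorgrams, CM4 sensor chip, sodium phosphate NaCl Tween20 running buffer, buffer-only injection used as reference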).
T1 construct: Expressed in HEK293H and purified on IgG Sepharose; also called hFcRn
T1 sequence (P55899 24-297 limits assumed, chain 1 of 2): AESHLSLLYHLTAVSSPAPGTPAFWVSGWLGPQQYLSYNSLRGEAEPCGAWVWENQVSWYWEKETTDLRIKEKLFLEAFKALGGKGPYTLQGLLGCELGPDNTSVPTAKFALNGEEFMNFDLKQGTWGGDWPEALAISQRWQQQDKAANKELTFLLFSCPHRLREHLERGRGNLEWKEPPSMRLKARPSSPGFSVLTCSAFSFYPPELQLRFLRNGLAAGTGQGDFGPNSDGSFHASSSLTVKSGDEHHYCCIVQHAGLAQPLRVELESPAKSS
T1 sequence (P61769 21-119 limits assumed, chain 2 of 2): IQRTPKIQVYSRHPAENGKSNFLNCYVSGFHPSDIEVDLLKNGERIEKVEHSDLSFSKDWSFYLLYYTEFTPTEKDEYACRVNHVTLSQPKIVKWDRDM
Procedure: (§1) An appropriate amount of protein L (ACTIGEN) was immobilized onto Sensor chip CM4 (GE Healthcare) by the amino coupling method, and the chip was allowed to capture an antibody of interest. Then, diluted FcRn solutions and running buffer (as a reference solution) were injected to allow human FcRn to interact with the antibody captured on the sensor chip. The running buffer used comprised 50 mmol/l sodium phosphate, 150 mmol/l NaCl, and 0.05% (w/v) Tween20 (pH 7.0). FcRn was diluted using each buffer. The chip was regenerated using 10 mmol/l glycine-HCl (pH 1.5). Assays were carried out exclusively at 25 degrees C. The association rate constant ka (1/Ms) and dissociation rate constant kd (1/s), both of which are kinetic parameters, were calculated based on the sensorgrams obtained in the assays, and KD (M) of each antibody for human FcRn was determined from these values. Each parameter was calculated using Biacore T100 Evaluation Software (GE Healthcare).

**Q.** With B1 as the binder, how does the Kd read?
**A.** 52 nM

The binders below were run against T2, soluble human FcRn (human, UniProt P55899 24-297; P61769 21-119) (assay: SPR (Biacore T100), antibody captured by protein L, hFcRn as analyte, pH 7.0, 25 C;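 also: KD calculated from fitted association and dissociation rate constants of the sensorgrams, protein L amine-coupled to the sensor chip, sodium phosphate running buffer with NaCl and Tween20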).
T2 construct: Heterodimer of FcRn alpha chain and beta2-microglobulin; also called hFcRn
T2 sequence (P55899 24-297 limits assumed, chain 1 of 2): as the sequence (P55899 24-297 limits assumed, chain 1 of 2) above
T2 sequence (P61769 21-119 limits assumed, chain 2 of 2): as the sequence (P61769 21-119 limits assumed, chain 2 of 2) above
Procedure: as §1

**Q.** With B2 as the binder, how does the Kd read?
**A.** 250 nM

**Q.** Which Kd does the source give for B3 here?
**A.** 71 nM

**Q.** For B4, which Kd is on record?
**A.** 200 nM

**Q.** For B5, which Kd is on record?
**A.** 160 nM

**Q.** For B6, which Kd is on record?
**A.** 120 nM

**Q.** How did the Kd turn out when B7 was run?
**A.** 340 nM

**Q.** With B8 as the binder, how does the Kd read?
**A.** 100 nM

**Q.** How did the Kd turn out when B9 was run?
**A.** 55 nM

**Q.** For B10, which Kd is on record?
**A.** 390 nM

**Q.** With B11 as the binder, how does the Kd read?
**A.** 86 nM

**Q.** With B12 as the binder, how does the Kd read?
**A.** 400 nM
